The text below walks through data of article PMC5988928, “An alkaline and surfactant-tolerant lipase from Trichoderma lentiforme ACCC30425 with high application potential in the detergent industry” (AMB Express, 2018).

Holding throughout (assay): purified protein
What all share (assay type): biochemical, Trichoderma sp.
Common to all, as to conditions: pH 9.5, 50 °C, 10 min, Tris-HCl

Substrate in series [1]: CCCC(=O)Oc1ccc([N+](=O)[O-])cc1
Substrate in series [2]: CCCCCCCC(=O)Oc1ccc([N+](=O)[O-])cc1
Substrate in series [3]: CCCCCCCCCC(=O)Oc1ccc([N+](=O)[O-])cc1
Substrate in series [4]: CCCCCCCCCCCC(=O)Oc1ccc([N+](=O)[O-])cc1
Substrate in series [5]: CCCCCCCCCCCCCC(=O)Oc1ccc([N+](=O)[O-])cc1
Substrate in series [6]: CCCCCCCCCCCCCCCC(=O)Oc1ccc([N+](=O)[O-])cc1

B1: TlLipA (Trichoderma sp.) (protein)
chain: AQGQVNVTIPSGNIMGSSVEDVEFFKGIPFADPPIGELRFKPPQTLSTHLGDFDATKKAKLCSQGPVFTVSSNPQVAPFALKAERESFGNPVPPENESEDCLTVTIHRPAGTEAGDDLPVLFYIFGGGFVIGGTSAAINDPTVLVQTGIDLGKPFIFAAVNYRVGGWGFMPGAEILRDGSANAGLLDQRKGLEWVADNIAAFGGDPSKVTIWGQSSGSISVFEQLVLYDGDNTYNGNPLFRGAIMNSGSVTPVDPVDSAKPQALYDHVVRVANCEGDDSLDCLRRLPNDHFAAAANSIPGLISYESLALSYLPRPDGEVLTASPHVLAREGKFPAVPMILASQEDEGTLFSFFQGDMGTTDIITDYLNSLYFTNTDRSLVKSFVETYSERLEDGSPYRTGDSKDLFYYPGKKRIASILGDIVFTLVRRWTLETIAEVSPETALWSSFASYNYKPLDIFGLGTKHGSDTEVFFARNNSDFPSITGRTYYINFVYNGDPNEGLDVNVTWLGWKEDRQLLWYNATENGYLADNFRNGSYNFIKEHIDSLIF
notes: secreted from Pichia pastoris GS115 (pPIC9, alpha-factor signal), no tag told; N-terminus AQGQVNVTIP from primer
For orientation: Km means the concentration of substrate that gives half-maximal velocity. A word on the Vmax: it is the rate approached at saturating substrate. In general, kcat refers to the maximal rate divided by the concentration of active sites. As usually defined, the kcat/Km is the second-order rate constant that governs catalysis at low substrate concentration. As to B1, the Michaelis constant (Km) in the series “purified protein [1]” stood at 400 ± 70 µM; in “purified protein [2]” it was 670 ± 230 µM; in the series “purified protein [3]” it was 350 ± 70 µM; in “purified protein [4]”, 1590 ± 420 µM; in “purified protein [5]” it was 3290 ± 1210 µM; in “purified protein [6]”, 4220 ± 1280 µM. For the same protein, the Vmax in the series “purified protein [1]” came to 12.2 µmol/min/mg; in the series “purified protein [2]” it was 27.3 µmol/min/mg; in the series “purified protein [3]”, 12.5 µmol/min/mg; in the series “purified protein [4]”, 16.8 µmol/min/mg; in the series “purified protein [5]” it was 4.3 µmol/min/mg; in the series “purified protein [6]”, 4.8 µmol/min/mg. Besides, the kcat amounted to 12.2 ± 0.8 s⁻¹ in “purified protein [1]”; 27.4 ± 4.4 s⁻¹ in the series “purified protein [2]”; 12.5 ± 0.7 s⁻¹ in the series “purified protein [3]”; 16.8 ± 2.4 s⁻¹ in “purified protein [4]”; 4.3 ± 1 s⁻¹ in the series “purified protein [5]”; 4.8 ± 1 s⁻¹ in “purified protein [6]”. In addition, the kcat/Km in “purified protein [1]” is 30700 M⁻¹ s⁻¹; in “purified protein [2]” it was 41000 M⁻¹ s⁻¹; in the series “purified protein [3]”, 35800 M⁻¹ s⁻¹; in the series “purified protein [4]”, 10600 M⁻¹ s⁻¹; in the series “purified protein [5]”, 1320 M⁻¹ s⁻¹; in the series “purified protein [6]”, 1140 M⁻¹ s⁻¹.
